Assay results taken from patent US20110055942A1.

Target: T1, BMPR-1A receptor extra cellular domain (ECD), P36894
T1 chain: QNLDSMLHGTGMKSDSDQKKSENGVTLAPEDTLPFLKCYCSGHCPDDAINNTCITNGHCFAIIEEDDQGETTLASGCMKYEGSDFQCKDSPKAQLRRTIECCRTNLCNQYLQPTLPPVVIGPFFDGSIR
Test: radio-ligand competition: cold TDF-1 displacing 125I-labeled TDF-1 from immobilized BMPR-1A ECD
Conditions: remark: other sources report otherwise

ED50: 6.5 nM
B1: TDF-1 (BMP-7 or OP-1), P18075 293-431 (ligand, UniProt P18075 293-431, looked up)
chain: STGSKQRSQNRSKTPKNQEALRMANVAENSSSDQRQACKKHELYVSFRDLGWQDWIIAPEGYAAYYCEGECAFPLNSYMNATNHAIVQTLVHFINPETVPKPCCAPTQLNAISVLYFDDSSNVILKKYRNMVVRACGCH
